Measured values as given in patent US7910550B2, “Human kunitz-type inhibitor with enhanced antifibrinolytic activity” (STC.UNM, priority 2004, dated 2011).

Tests used:
[1] = target: factor VIIa-tissue factor complex (Homo sapiens, UniProt P08709); test: Inhibition assay for factor VIIa-tissue factor amidolytic activity (S-2288); assay type: biochemical; parameters: purchased Novo Nordisk (Copenhagen, Denmark) for factor VIIa (provided as a gift); soluble tissue factor prepared in house by a published method (Petersen et al., 1996); settings: relative to wild-type KD1
Chain of factor VIIa-tissue factor complex (P08709 213-466 limits assumed): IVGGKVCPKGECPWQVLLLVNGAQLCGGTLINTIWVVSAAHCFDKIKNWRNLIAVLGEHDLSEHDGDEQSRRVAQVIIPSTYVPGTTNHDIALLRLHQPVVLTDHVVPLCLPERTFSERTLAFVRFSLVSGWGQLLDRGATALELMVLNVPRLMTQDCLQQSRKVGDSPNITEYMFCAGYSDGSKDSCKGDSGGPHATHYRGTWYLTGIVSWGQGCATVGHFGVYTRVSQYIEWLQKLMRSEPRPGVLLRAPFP
Chain of factor VIIa-tissue factor complex (P08709 61-212 partner limits assumed): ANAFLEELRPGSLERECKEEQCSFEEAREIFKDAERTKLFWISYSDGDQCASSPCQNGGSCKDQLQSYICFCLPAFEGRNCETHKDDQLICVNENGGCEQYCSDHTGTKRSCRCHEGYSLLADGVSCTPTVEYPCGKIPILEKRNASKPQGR
Chain of factor VIIa-tissue factor complex (P13726 33-251 partner limits assumed): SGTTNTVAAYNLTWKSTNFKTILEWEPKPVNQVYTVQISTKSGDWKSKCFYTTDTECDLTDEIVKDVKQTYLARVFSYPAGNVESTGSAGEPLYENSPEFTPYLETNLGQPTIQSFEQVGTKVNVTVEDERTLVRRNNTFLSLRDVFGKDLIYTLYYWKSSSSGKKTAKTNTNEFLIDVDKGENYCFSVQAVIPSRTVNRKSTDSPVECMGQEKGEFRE
Procedure: Recombinant soluble human tissue factor (100 nM) and factor VIIa (50 nM) were incubated in a TBS-BSA buffer/5 mM CaCl2 for 15 minutes at 37° C. Following this incubation, aliquots (100 μl) were dispensed into a 96-well microtitration plate and treated with serial dilutions of inhibitors dissolved in TBS buffer. After 15 minutes of incubation, 30 μl of S-2288 (final concentration, 1 mM) was added to each well and the absorbance at 405 nm was determined as described earlier.
The apparent inhibition constant, Ki′ was determined using the non-linear regression data analysis program Ultrafitfv3.0 (Biosoft). Trypsin and plasmin inhibitory data were analyzed according to the following equation for a tight-binding inhibitor: vi=v0[√(Ki′+[I]0+[E]0)^2−4[I]0[E]0−(Ki′+[I]0−[E]0)]/2[E]0 where vi and v0 are the inhibited and uninhibited rates, respectively, and [I]0 and [E]0 are the total concentrations of inhibitor and enzyme, respectively. Factor VIIa-tissue factor inhibition data, where Ki>>[E]0, were analyzed according to the following equation: vi=v0/(1+[I]0/Ki′) Ki values were obtained by correcting for the effect of substrate according to Bieth et al. (Biochem. Med., 32:387-397, 1984), where Ki=Ki′/(1+[S]/Km) Results Molecular Modeling and Selection of Mutations

[2] = test system: HT-1080 cells; test: Apoptosis detection by AO/EB staining; assay type: cell-based, human; settings: 1 μM, 48 h; approximately 5% in vehicle-treated cells
Procedure: All cell lines were maintained in Dulbecco's minimal essential medium (DMEM), supplemented with heat-inactivated 10% fetal bovine serum and penicillin-streptomycin. The cells were cultured either in 6- or 12-well plates at 37° C. in a humidified atmosphere containing 6% CO2. At confluence, the cells were treated with fresh medium containing either wild-type TFPI-2, R24K KD1, or R24Q KD1. Cells were treated in duplicate with purified proteins at concentrations ranging from 0.5 μM to 10 μM for different time intervals. One set were also treated with PBS to serve as a control. The Limulus Amebocyte Lysate (LAL) assay was performed on each protein preparation to determine the presence of any endotoxin/LPS, and only trace amounts of endotoxin (<0.5 ng/L) were detected in each protein preparation.
Cells were grown to confluence in two-chamber culture slides containing 2 ml medium. For AO/EB staining, the cultures were treated with recombinant proteins as described above. […] Cells were viewed within 30 minutes of staining and counted using a Zeiss axiocam epifluorescence microscope (Carl Zeiss, Inc., Thornwood, N.Y.) equipped with a triple cube filter [DAPI/FITC/RITC]. […] Experiments were performed in triplicate, and a minimum of 100 total live and apoptotic cells were counted in each treatment.

[3] = test system: HT-1080 fibrosarcoma xenografts; assay type: in vivo, SCID mice
Procedure: The relative mRNA abundance in the snap-frozen tumor xenograft samples was assessed by oligonucleotide-based microarray analysis using an Affymetrix […] Human Genome U133 set (Affymetrix, Inc., Santa Clara, Calif.). This microarray consists of two array units of over one million unique oligonucleotide features covering over 39,000 transcript variants that represent 33,000 of the best characterized human genes. Additional information regarding these chips is available on-line at the Affymetrix, Inc. website. Biotinylated cRNA probe preparation, processing, hybridization and normalization were performed as described in the Affymetrix […] Expression Analysis Manual. Florescence images were captured using a gene array scanner (Affymetrix, Inc., Santa Clara, Calif.) and expression analysis was performed using GeneSpring v5.1 software. The wild-type TFPI-2 transfected (WT) tumor ratio of medians was normalized with that obtained from mock-transfected (MT) tumors.

[4] = test system: VEGF-induced angiogenesis; test: VEGF-induced chorioallantoic membrane assay; assay type: in vivo; settings: preliminary studies
[5] = TFPI-2 expressing tumors over mock-transfected tumors
[6] = human fibrosarcomas secreting wild-type human TFPI-2

B1: R24K KD1: KD1 with lysine in place of arginine at position 24 (SEQ ID NO:3) (protein)
chain: DAAQEPTGNNAEICLLPLDYGPCKALLLRYYYDRYTQSCRQFLYGGCEGNANNFYTWEACDDACWRIEKVPKV
modifications: mutated active domain
- reduction in inhibitory activity towards factor VIIa / VIIa-TF [1]: approximately five-fold

B2: TFPI-2: Human tissue factor pathway inhibitor-2, 213 amino acid polypeptide with three tandem Kunitz-type domains (SEQ ID NO:1) (protein, listed as Homo sapiens)
chain: DAAQEPTGNNAEICLLPLDYGPCRALLLRYYYDRYTQSCRQFLYGGCEGNANNFYTWEACDDACWRIEKVPKVCRLQVSVDDQCEGSTEKYFFNLSSMTCEKFFSGGCHRNRIENRFPDEATCMGFCAPKKIPSFCYSPKDEGLCSANVTRYYFNPRYRTCDAFTYTGCGGNDNNFVSREDCKRACAKALKKKKKMPKLRFASRIRKIRKKQF
- apoptotic cells (AO/EB staining) [2]: 39%
- Fold Change mRNA: Erythropoietin-producing hepatocyte kinase, EphB6 (NM_004445) [3]: −2.38 fold
- Fold Change mRNA: ADAM-TS2 (NM_021599) [3, 5]: −4.62 fold
- Fold Change mRNA: Alpha 1 chain of Type XII Collagen (AA669336) [3, 5]: +7.26 fold
- Fold Change mRNA: Aquaporin 1 (NM_000385) [3, 5]: +2.30 fold
- Fold Change mRNA: Biglycan (BC002416) [3, 5]: −2.29 fold
- Fold Change mRNA: Bone morphogenetic protein 4 (D30751) [3, 5]: +2.79 fold
- Fold Change mRNA: COUP-transcription factor (X16155) [3, 5]: −2.79 fold
- Fold Change mRNA: CUB domain-containing protein 1 (CDCP1) (NM_022842) [3, 5]: −18.70 fold
- Fold Change mRNA: Cell death regulator Aven (NM_020371) [3, 5]: −2.11 fold
- Fold Change mRNA: Chondroitin sulfate proteoglycan 2 (versican) (D32039) [3, 5]: −2.13 fold
- Fold Change mRNA: Collagen, type 1, alpha 1 (NM_000088) [3, 5]: +3.51 fold
- Fold Change mRNA: Cytidine deaminase (NM_001785) [3, 5]: +35.30 fold
- Fold Change mRNA: EEF1A2, Eukaryotic translation elongation factor 1 alpha 2 (NM_001958) [3, 5]: +6.85 fold
- Fold Change mRNA: EGF-TM7-latrophilin-related protein (NM_022159) [3, 5]: −2.92 fold
- Fold Change mRNA: EIF2Ak1, protein kinase, PKR (NM_002759) [3, 5]: +2.51 fold
- Fold Change mRNA: Endothelin receptor type A (AU118882, NM_001957) [3, 5]: −2.90 fold
- Fold Change mRNA: FLT, VEGFR1, Fms-related tyrosine kinase receptor (NM_002019) [3, 5]: −2.24 fold
- Fold Change mRNA: Fibronectin 1 (AJ276395) [3, 5]: −3.80 fold
- Fold Change mRNA: Formin like (FRL) (NM_005892) [3, 5]: −2.14 fold
- Fold Change mRNA: Helicase, Basic leucine zipper transcription factor-1 (NM_001186) [3, 5]: −2.11 fold
- Fold Change mRNA: Hemoglobin, epsilon 1, oxygen transport (NM_005330) [3, 5]: −7.63 fold
- Fold Change mRNA: Interleukin-8 (IL-8, C—X—CL8) (NM_000584) [3, 5]: −6.99 fold
- Fold Change mRNA: Junction plakoglobin (NM_021991) [3, 5]: −2.21 fold
- Fold Change mRNA: LIM domain binding 2 (NM_001290) [3, 5]: −5.20 fold
- Fold Change mRNA: LIM homeobox protein 6 (NM_014368) [3, 5]: +2.91 fold
- Fold Change mRNA: Ligase III, DNA (NM_013975) [3, 5]: +2.04 fold
- Fold Change mRNA: Lymphocyte antigen 75, gp200-MR6 (NM_002349) [3, 5]: +14.32 fold
- Fold Change mRNA: MAGE-A1, Melanoma antigen family A1 (NM_004988) [3, 5]: −2.95 fold
- Fold Change mRNA: Metastasis suppressor gene (NM_014751) [3, 5]: +2.06 fold
- Fold Change mRNA: N-Cadherin (M34064) [3, 5]: −2.13 fold
- Fold Change mRNA: Neuropeptide Y receptor (L01639) [3, 5]: −8.03 fold
- Fold Change mRNA: Nox 4, NADPH oxidase 4 (NM_016931) [3, 5]: −2.46 fold
- Fold Change mRNA: Oligophrenin 1 (NM_002547) [3, 5]: +2.95 fold
- Fold Change mRNA: PBX-2, Pre-B cell leukemia transcription factor-2 (NM_002586) [3, 5]: −2.75 fold
- Fold Change mRNA: Phenylalanine-tRNA synthetase (NM_006567) [3, 5]: +2.11 fold
- Fold Change mRNA: Phorbolin-like protein MDS019 (NM_021822) [3, 5]: +2.80 fold
- Fold Change mRNA: Protein tyrosine phosphatase, receptor type, U (U71075) [3, 5]: −2.48 fold
- Fold Change mRNA: Reversion-inducing-cysteine-rich protein with kazal motif (RECK) (NM_021111) [3, 5]: +2.64 fold
- Fold Change mRNA: S100 calcium-binding protein A4 (NM_002961) [3, 5]: +2.79 fold
- Fold Change mRNA: Tumor necrosis factor, alpha-induced protein 2 (NM_006291) [3, 5]: +2.98 fold
- Fold Change mRNA: Tumor protein D52-like 1 (NM_003287) [3, 5]: +2.10 fold
- Fold Change mRNA: Vascular endothelial growth factor C (U58111) [3, 5]: −2.41 fold
- Fold Change mRNA: Zinc finger protein 22 (KOX 15) (NM_006963, AA744771) [3, 5]: +29.27 fold
- Fold Change mRNA: Zinc finger protein 185 (LIM domain) (NM_006291) [3, 5]: +5.05 fold
- Fold Change mRNA: dermatopontin precursor (AI146848) [3, 5]: +2.87 fold
- Fold Change mRNA: enigma (LIM domain protein) (AW206786) [3, 5]: −2.32 fold
- Fold Change mRNA: fibrillin 1 precursor (AI264196) [3, 5]: −2.48 fold
- Fold Change mRNA: platelet derived growth factor alpha polypeptide (NM_002607) [3, 5]: +2.53 fold
- Fold Change mRNA: protein tyrosine kinase 7 (NM_002821) [3, 5]: +2.33 fold
- Fold Change mRNA: sortilin 1 (SORTI) (BE742268) [3, 5]: −4.21 fold
- Fold Change mRNA: thrombospondin 1 precursor (AI812030) [3, 5]: −3.39 fold
- Fold Change mRNA: voltage-gated potassium channel activity (AF052169) [3, 5]: +2.48 fold
- Fold Change mRNA: Chemokine (C—X—C motif), receptor 4 (fusin) (AF348491) ([3]; TFPI-2 expressing tumors over mock-transfected tumors, first of two values): −4.21 fold
- Fold Change mRNA: Chemokine (C—X—C motif), receptor 4 (fusin) (AJ224869) ([3]; TFPI-2 expressing tumors over mock-transfected tumors, second of two values): −27.40 fold
- IL-8 down regulated [3, 6]: 6.99 fold
- VEGF-C down regulated [3, 6]: 2.41 fold
- VEGF-R1 (FLT1) down regulated [3, 6]: 2.24 fold
- anti-angiogenic effect [4]: potent and dose-dependent anti-angiogenic effect
